Key:
C-PAE cells = experiment: Competitive proliferation assay with anti-Tum-4 antibody; type: cell-based, bovine; conditions: 1.5 μg/ml
Method: To determine if Turn-1 's inhibition of endothelial cell proliferation could be nullified by anti-Tum-4 antibody, a competitive proliferation assay was performed as described in Example 26, above. Tum-1 was preincubated with anti-Tum-4 antibody for the purpose of at least partially blocking the αvβ3 integrin binding site. It was then used in endothelial cell proliferation assays.
The results are shown in FIGS. 38A and 38B, which are histograms showing proliferation of C-PAE cells (y-axis) treated with 1.5 μg/ml Tum-1 (FIG. 38A) or Tum-2 (FIG. 38B) that had been preincubated with anti-Tum-4 antibody (1:100, 1:200, 1:500 dilution) (x-axis). Each column represents the mean ±the standard error of the mean for triplicate wells. The experiments were repeated three times. Asterisks indicate P<0.05 by one-tailed Student's t-test.

MLEC β3+/+ = experiment: Protein synthesis and cap-dependent translation in wild-type mouse lung endothelial cells; type: cell-based; conditions: 4.5 μM; rapamycin 100 ng/ml
Description: Therefore, to evaluate the effect of tumstatin peptides on cap-dependent and independent translation, endothelial cells were isolated from lungs of 12-week-old mice that were deficient in the expression of αvβ3 integrin (i.e., 3 integrin-deficient mice), and also their wild-type counterparts (Hodivala-Dilke, K. M. et al., 1999, J. Clin. Invest. 103:229-38). Briefly, ICAM-2 expressing MLEC were enriched using rat anti-mouse ICAM-2 (# 01800D, PharMingen, San Diego, Calif., USA) conjugated to magnetic beads (Dynabeads M-450, Dynal, Oslo, Norway). MLEC were maintained in 40% Ham's F-12,40% DME-Low Glucose, 20% FBS supplemented with heparin, endothelial mitogen (Biomedical Technologies, Inc., Cambridge, Mass., USA), glutamine and penicillin/streptomycin. Wild-type and β3-integrin-deficient mouse embryonic fibroblasts were prepared (Hodivala-Dilke, K. M. et al., 1999, J. Clin. Invest. 103:229-38). MEFs were maintained in DMEM containing 10% FBS. MLEC were characterized for homogeneity by morphological observations and by immunofluorescence staining for endothelial-specific markers. Cells between passage 3 and 6 were used for the experiments.

[1] = system: 786-O (renal carcinoma) cells; experiment: Proliferation of control cells, 3H-thymidine incorporation; type: cell-based, human; conditions: non-endothelial control; Canstatin up to 40 mg/ml, Tumstatin up to 20 mg/ml
Method: (§1) C-PAE cells were grown to confluence in DMEM with 10% fetal calf serum (FCS) and kept contact inhibited for 48 hours. Control cells were 786-O (renal carcinoma) cells, PC-3 cells, HPEC cells, and A-498 (renal carcinoma) cells. Cells were harvested with trypsinization (Life Technologies/Gibco BRL, Gaithersburg, Md., USA) at 37° C. for five minutes. […] The cells were incubated for 24 hours at 37° C. with 5% CO2 and 95% humidity. Medium was removed and replaced with DMEM containing 0.5% FCS and 3 ng/ml bFGF (R&D Systems, Minneapolis, Minn., USA). Unstimulated controls received no bFGF. […] All wells received 1 μCurie of ^3H-thymidine at the time of treatment. After 24 hours, medium was removed and the wells were washed with PBS. Cells were extracted with 1N NaOH and added to a scintillation vial containing 4 ml of ScintiVerse II (Fisher Scientific, Pittsburgh, Pa., USA) solution. Thymidine incorporation was measured using a scintillation counter. The results are shown in FIGS. 3A and 3B, which are a pair of graphs showing incorporation of ^3H-thymidine into C-PAE cells treated with varying amounts of Arresten (FIG. 3A) or endostatin (FIG. 3B). Arresten appeared to inhibit thymidine incorporation in C-PAE as well as did endostatin. Behavior of control cells treated with Arresten and endostatin is also shown in FIG. 4A, 4B, 4C, and 4D, with Arresten having little effect on 786-O cells (FIG. 4A), PC-3 cells (FIG. 4B), or HPEC cells (FIG. 4C). Endostatin had little effect on A-498 cells (FIG. 4D). All groups in FIGS. 3 and 4 represent triplicate samples. […] (C-PAE) cells were grown to confluence in DMEM with 10% fetal calf serum (FCS) and kept contact inhibited for 48 hours. Cells were harvested by trypsinization (Life Technologies/Gibco BRL, Gaithersberg, Md., USA) at 37° C. for 5 minutes. […] The cells were incubated for 24 hours at 37° C. C. with 5% CO2 and 95% humidity. Medium was removed, and replaced with DMEM containing 0.5% FCS (unstimulated) or 10% FCS (stimulated and treated cells). 786-O, PC-3 and HEK 293 cells served as controls and were also grown to confluency, trypsinized and plated in the same manner. Cells were treated with concentrations of Canstatin or endostatin ranging from 0.025 to 40 mg/ml in triplicate. In thymidine incorporation experiments, all wells received […] of ^3H-thymidine at the time of treatment. After 24 hours, medium was removed and the wells were washed 3 times with PBS. Radioactivity was extracted with 1N NaOH and added to a scintillation vial containing 4 ml of ScintiVerse II (Fisher Scientific, Pittsburgh, Pa., USA) solution. Thymidine incorporation was measured using a scintillation counter. […]

PC-3 cells = experiment: as above; type: cell-based, human; conditions: non-endothelial control; Canstatin up to 40 mg/ml, Tumstatin up to 20 mg/ml
Method: as §1

Row | Molecule | anti-proliferative effect after pre-incubation with anti-Tum-4 antibody (C-PAE cells) | protein synthesis / cap-dependent translation in control (β3+/+) endothelial cells (MLEC β3+/+) | effect on proliferation [1] | effect on proliferation (PC-3 cells)
1 | Tum-2: residues 1 to 132 of Tumstatin (SEQ ID NO:23) (protein, Tum-2 (amino acids 1-132 of SEQ ID NO10)) GLKGKRGDSGSPATWTTRGFVFTRHSQTTAIPSCPEGTVPLYSGFSFLFVQGNQRAHGQDLGTLGSCLQRFTTMPFLFCNVNDVCNFASRNDYSYWLSTPALMPMNMAPITGRALEPYISRCTVCEGPAIAI | not affected |  |  | 
2 | Tumstatin: NC1 domain of the α3 chain of type IV collagen, residues 1-244 (SEQ ID NO:10) (protein, listed as Homo sapiens) GLKGKRGDSGSPATWTTRGFVFTRHSQTTAIPSCPEGTVPLYSGFSFLFVQGNQRAHGQDLGTLGSCLQRFTTMPFLFCNVNDVCNFASRNDYSYWLSTPALMPMNMAPITGRALEPYISRCTVCEGPAIAIAVHSQTTDIPPCPHGWISLWKGFSFIMFTSAGSEGTGQALASPGSCLEEFRASPFLECHGRGTCNYYSNSYSFWLASLNPERMFRKPIPSTVKAGELEKIISRCQVCMKKRH |  | inhibited protein synthesis | no significant anti-proliferative effect | no significant anti-proliferative effect
3 | endostatin: tumor associated angiogenesis inhibitor used as comparator (protein, UniProt P39060 1572-1754, looked up, Endostatin) Endostatin: HSHRDFQPVLHLVALNSPLSGGMRGIRGADFQCFQQARAVGLAGTFRAFLSSRLQDLYSIVRRADRAAVPIVNLKDELLFPSWEALFSGSEGPLKPGARIFSFDGKDVLRHPTWPQKSVWHGSDPNGRRLTESYCETWRTEAPSATGQASSLLGGRLLGQSAASCHHAYIVLCIENSFMTASK |  | did not exhibit this property |  | 
4 | Canstatin: NC1 domain of the α2 chain of Type IV collagen (SEQ ID NO:6) (protein, listed as Homo sapiens) VSIGYLLVKHSQTDQEPMCPVGMNKLWSGYSLLYFEGQEKAHNQDLGLAGSCLARFSTMPFLYCNPGDVCYYASRNDKSYWLSTTAPLPMMPVAEDEIKPYISRCSVCEAPAIAIAVHSQDVSIPHCPAGWRSLWIGYSFLMHTAAGDEGGGQSLVSPGSCLEDFRATPFIECNGGRGTCHYYANKYSFWLTTIPEQSFQGSPSADTLKAGLIRTHISRCQVCMKNL |  |  | No significant effect | No significant effect
5 | Tum-1: residues 54 to 244 of Tumstatin, lacking the N-terminal 53 amino acids (SEQ ID NO:22) (protein, Tum-1 (Tumstatin N-53) (amino acids 54-244 of SEQ ID NO10)) QRAHGQDLGTLGSCLQRFTTMPFLFCNVNDVCNFASRNDYSYWLSTPALMPMNMAPITGRALEPYISRCTVCEGPAIAIAVHSQTTDIPPCPHGWISLWKGFSFIMFTSAGSEGTGQALASPGSCLEEFRASPFLECHGRGTCNYYSNSYSFWLASLNPERMFRKPIPSTVKAGELEKIISRCQVCMKKRH | not altered |  |  | 
